{
  "source": "patent US9889183B2",
  "about": "“PKC activators and anticoagulant in regimen for treating stroke” (BLANCHETTE ROCKEFELLER NEUROSCIENCES INSTITUTE, priority 2010, dated 2018)",
  "molecules": {"B1": {"name": "rTPA: recombinant tissue plasminogen activator, thrombolytic serine protease (protein, UniProt P00750 36-562, looked up)", "Tissue-type plasminogen …": "SYQVICRDEKTQMIYQQHQSWLRPVLRSNRVEYCWCNSGRAQCHSVPVKSCSEPRCFNGGTCQQALYFSDFVCQCPEGFAGKCCEIDTRATCYEDQGISYRGTWSTAESGAECTNWNSSALAQKPYSGRRPDAIRLGLGNHNYCRNPDRDSKPWCYVFKAGKYSSEFCSTPACSEGNSDCYFGNGSAYRGTHSLTESGASCLPWNSMILIGKVYTAQNPSAQALGLGKHNYCRNPDGDAKPWCHVLKNRRLTWEYCDVPSCSTCGLRQYSQPQFRIKGGLFADIASHPWQAAIFAKHRRSPGERFLCGGILISSCWILSAAHCFQERFPPHHLTVILGRTYRVVPGEEEQKFEVEKYIVHKEFDDDTYDNDIALLQLKSDSSRCAQESSVVRTVCLPPADLQLPDWTECELSGYGKHEALSPFYSERLKEAHVRLYPSSRCTSQHLLNRTVTDNMLCAGDTRSGGPQANLHDACQGDSGGPLVCLNDGRMTLVGIISWGLGCGQKDVPGVYTKVTNYLDWIRDNMRP"}},
  "tested_on": "ischemic stroke (middle cerebral artery occlusion) in rats",
  "assay": "Focal ischemia (MCAO) model of stroke",
  "type": "in vivo, rat",
  "details": "rTPA 6 hours after the stroke, without subsequent bryostatin; rats",
  "method": "A transient animal model of focal ischemia was used for these experiments. The middle cerebral artery (MCA) was surgically dissected and occluded in anesthetized rats by ligature, followed by reperfusion after a defined period (about 2 hours). Animal models transient ischemia via occlusion of the MCA (MCAO) are well-known and described in, e.g., Sicard and Fisher, Exp. & Transl. Stroke Med. (2009), vol. 1, pp. 1-7.",
  "data": [
    {"molecule": "B1", "values": [
      {"measurement": "mortality", "value": 44, "unit": "%"}
    ]}
  ]
}
